Where two headings read alike, the source gives them in different places.

Assay [1] deals with Recombinant HGF receptor (c-met)/fc chimera (UniProt P08581). Put plainly: SPR; Biacore 2000, 25°C; c-Met/Fc chimera amine-coupled (EDC/NHS) to a CM5 chip (22113 or 22377 RU); reconstituted rHGF injected at the stated concentrations; response read after the end of the injection (dissociation phase). In general terms: SPR reads the build-up and loss of mass on a sensor chip optically.

Assay [2] shares this target. Put plainly: SPR; Biacore 2000, 25°C; c-Met/Fc chimera amine-coupled to a CM5 chip; supernatant of buffy coat (before or after haemolysis by freezing) or serum of one donor, diluted 1:20 in PBS pH 7.4.
The target is the same in assay [3]. Kind of assay: SPR; Biacore 2000, 25°C; c-Met/Fc chimera amine-coupled to a CM5 chip; medium conditioned by a healthy donor's blood (endogenous HGF, positive control) injected.
The target is the same in assay [4]. The description is as above. The source holds these as a separate data set.

Sequence of UniProt P08581 (P08581 25-932, change not shown): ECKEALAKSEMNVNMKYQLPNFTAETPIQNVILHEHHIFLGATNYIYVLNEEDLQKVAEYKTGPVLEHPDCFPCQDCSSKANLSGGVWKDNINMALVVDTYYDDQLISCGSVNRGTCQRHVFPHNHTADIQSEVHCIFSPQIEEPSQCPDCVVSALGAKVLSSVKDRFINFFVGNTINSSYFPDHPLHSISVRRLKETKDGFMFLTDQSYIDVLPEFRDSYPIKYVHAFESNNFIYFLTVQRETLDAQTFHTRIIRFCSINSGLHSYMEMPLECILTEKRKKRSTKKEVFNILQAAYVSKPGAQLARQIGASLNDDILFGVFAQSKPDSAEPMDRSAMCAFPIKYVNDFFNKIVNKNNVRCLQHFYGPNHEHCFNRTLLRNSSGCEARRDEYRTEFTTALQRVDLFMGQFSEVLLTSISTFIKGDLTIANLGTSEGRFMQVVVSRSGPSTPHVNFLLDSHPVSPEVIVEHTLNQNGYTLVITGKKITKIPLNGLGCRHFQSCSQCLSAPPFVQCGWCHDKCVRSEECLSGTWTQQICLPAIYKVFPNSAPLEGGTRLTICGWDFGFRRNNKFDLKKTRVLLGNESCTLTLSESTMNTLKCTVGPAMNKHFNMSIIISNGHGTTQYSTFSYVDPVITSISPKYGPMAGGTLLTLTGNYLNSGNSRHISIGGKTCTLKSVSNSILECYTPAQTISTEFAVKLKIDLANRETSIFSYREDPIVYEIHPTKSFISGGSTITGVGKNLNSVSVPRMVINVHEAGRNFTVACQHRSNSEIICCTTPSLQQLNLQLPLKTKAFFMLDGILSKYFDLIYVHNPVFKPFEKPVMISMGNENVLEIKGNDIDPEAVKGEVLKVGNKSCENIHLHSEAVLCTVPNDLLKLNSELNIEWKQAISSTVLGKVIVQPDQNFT

On to “Recombinant human hepatocyte growth factor, lot GJ175031 (from UniProt P14210 32-728) (ligand)”, for which, in assay [1], the SPR response at 0.8 μg/ml worked out at 120 RU, the SPR response at 4 μg/ml was 201 RU and the SPR response at 5 μg/ml was determined as 265 RU.
For the substance “Endogenous HGF from human blood (ligand)”, in assay [2], the SPR response, buffy coat supernatant 1:20 is 247 RU; the SPR response, haemolysed buffy coat 1:20 came out at 163 RU; the SPR response, serum 1:20 stood at 317 RU. In addition, the SPR response in assay [3] amounted to 403 RU. Also, the SPR response in assay [4] amounted to 209 RU.
For the substance “Recombinant HGF, R&D carrier-free, lot GJ174034 (from UniProt P14210 32-728) (ligand)”, in assay [1], the SPR response at 2.5 μg/ml after 15 h at room temperature is 181 RU; the SPR response at 2.5 μg/ml after 15 h at −20°C and thawing came out at 94 RU; the SPR response at 2.5 μg/ml, freshly reconstituted was found to be 194 RU.

(Values after article PMC2562019.)
